Reference: paper PMC12623983
Changes are numbered by the printed parent chain. Numbers in names are those of the source.

B1: human NMT2 (N-myristoyltransferase 2), wild type, O60551 R306E; R324E; K327E (protein)
chain: MAEDSESAASQQSLELDDQDTCGIDGDNEEETEHAKGSPGGYLGAKKKKKKQKRKKEKPNSGGTKSDSASDSQEIKIQQPSKNPSVPMQKLQDIQRAMELLSACQGPARNIDEAAKHRYQFWDTQPVPKLDEVITSHGAIEPDKDNVRQEPYSLPQGFMWDTLDLSDAEVLKELYTLLNENYVEDDDNMFRFDYSPEFLLWALRPPGWLLQWHCGVRVSSNKKLVGFISAIPANIRIYDSVKKMVEINFLCVHKKLRSKRVAPVLIREITRRVNLEGIFQAVYTAGVVLPKPIATCRYWHRSLNPEKLVEVKFSHLSRNMTLQETMELYRLPDVTKTSGLRPMEPKDIKSVRELINTYLKQFHLAPVMDEEEVAHWFLPREHIIDTFVVESPNGKLTDFLSFYTLPSTVMHHPAHKSLKAAYSFYNIHTETPLLDLMSDALILAKSKGFDVFNALDLMENKTFLEKLKFGIGDGNLQYYLYNWRCPGTDSEKVGLVLQ
B2: human NMT2 (N-myristoyltransferase 2), wild type, O60551 R324E; K327E (protein)
chain: B1 chain with E306R
B3: human NMT2 (N-myristoyltransferase 2), wild type, O60551 R306E (protein)
chain: B1 chain with E324R, E327K

Each binder was assayed against ribosomes from HEK293 cells (80S ribosomes, empty ribosomes), P62750;P62906 (assay: co-sedimentation assay with immunoblot quantification). Details: chain shown with the change; NMT2 alone with ribosomes (no NAC); three independent replicates; parent: est. 1.0; read off a plot.

Point of comparison: B3, ratio to parent 0.35. Against it:
- B1 — lower, 0.27
- B2 — lower, 0.32

Same assay, conditions: chain shown with the change; NMT2 with ribosomes in the presence of NAC; three independent replicates; parent: est. 2.2; read off a plot

Point of comparison: B3, response (normalized intensity) 0.85. Against it:
- B1 — lower, 0.3
- B2 — lower, 0.45
